Laboratory results: patent publication US20080064059A1

Columns and labels:
[1] = biological target: glycomyoglobin containing GalNAc-α-threonine at position 4 (myoglobin 4TAG mutant, C-terminal 6x His tag) (UniProt P02185); test: enzyme-linked lectin-binding assay (ELLA), immobilized myoglobin samples, biotinylated lectin, streptavidin-alkaline phosphatase, pNPP at 405 nm; reference: equivalent concentrations of tyrosine-myoglobin
[2] = biological target: glycomyoglobin containing β-GlcNAc-serine at position 4 (Gly4TAG mutant myoglobin, C-terminal His6 tag) (UniProt P02185); test: ELISA-like assay, 200 ng immobilized myoglobin, biotinylated BSII, streptavidin-alkaline phosphatase, absorbance at 405 nm; reference: wild-type myoglobin
Chain of glycomyoglobin containing β-GlcNAc-serine at position 4 (Gly4TAG mutant myoglobin, C-terminal His6 tag) (P02185 other isoform, or with tags, fused parts or gaps mutant): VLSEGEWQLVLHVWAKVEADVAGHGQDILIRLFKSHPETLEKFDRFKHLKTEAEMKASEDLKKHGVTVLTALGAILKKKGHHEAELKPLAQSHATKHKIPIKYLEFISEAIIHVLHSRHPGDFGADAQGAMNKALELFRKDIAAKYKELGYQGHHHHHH

Chain of glycomyoglobin containing GalNAc-α-threonine at position 4 (myoglobin 4TAG mutant, C-terminal 6x His tag) (P02185 other isoform, or with tags, fused parts or gaps mutant): as above
Chain of Vicia Villosa lectin (VVL), biotinylated conjugate (P56625 whole entry): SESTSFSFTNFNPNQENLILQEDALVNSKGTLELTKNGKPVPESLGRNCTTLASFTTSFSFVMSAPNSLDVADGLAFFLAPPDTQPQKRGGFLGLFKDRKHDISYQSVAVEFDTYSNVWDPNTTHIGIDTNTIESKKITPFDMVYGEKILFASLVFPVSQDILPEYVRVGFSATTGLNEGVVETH

| Substance | fold signal increase versus tyrosine-myoglobin [1] [fold] | fold signal versus wild-type myoglobin [2] [fold] |
| --- | --- | --- |
| Vicia Villosa lectin (VVL), biotinylated conjugate (from UniProt P56625 1-185) | 10 |  |
| Dolichos Biflorus lectin (DBL), biotinylated conjugate (from UniProt P05045 23-275) | 5 |  |
| Bandeiraea simplicifolia II (BSII) lectin, biotinylated |  | > 200 |
